Results from PMC4043820.

Legend:
[1] = molecular target: OsWRKY53SD S43D;S72D;S77D;S89D;S96D;S108D (Oryza sativa (rice)) (UniProt A7BEY7); assay: EMSA; details: 12 mM HEPES-KOH pH 8.0, 60 mM KCl, 4 mM MgCl2, 1 mM EDTA, 12% glycerol, 1 mM DTT, 2.5 mM PMSF, 0.1 ug protein in 20 ul, 20 min on ice; 6% PAGE in 1x TBE at …
[2] = molecular target: OsWRKY53SA S43A;S72A;S77A;S89A;S96A;S108A (Oryza sativa (rice)) (UniProt A7BEY7); assay: EMSA; details: 12 mM HEPES-KOH pH 8.0, 60 mM KCl, 4 mM MgCl2, 1 mM EDTA, 12% glycerol, 1 mM DTT, 2.5 mM PMSF, 0.1 ug protein in 20 ul, 20 min on ice; 6% PAGE in 1x TBE at …
Sequence of OsWRKY53SA S43A;S72A;S77A;S89A;S96A;S108A (Oryza sativa (rice)) (A7BEY7 entry or part of it S43A S72A S77A S89A S96A S108A): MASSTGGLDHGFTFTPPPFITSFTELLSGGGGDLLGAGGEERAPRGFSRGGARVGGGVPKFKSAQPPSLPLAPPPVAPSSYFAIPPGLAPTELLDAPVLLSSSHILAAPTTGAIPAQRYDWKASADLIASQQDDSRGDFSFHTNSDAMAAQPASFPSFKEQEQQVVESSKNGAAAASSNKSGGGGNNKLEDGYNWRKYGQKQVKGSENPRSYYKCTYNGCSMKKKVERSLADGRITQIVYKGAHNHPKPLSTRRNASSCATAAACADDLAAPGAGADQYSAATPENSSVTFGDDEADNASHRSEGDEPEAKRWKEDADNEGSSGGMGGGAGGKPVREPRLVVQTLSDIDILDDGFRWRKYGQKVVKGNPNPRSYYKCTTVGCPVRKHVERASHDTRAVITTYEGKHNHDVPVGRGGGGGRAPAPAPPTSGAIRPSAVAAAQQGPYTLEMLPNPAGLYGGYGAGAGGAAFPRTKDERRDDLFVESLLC

Sequence of OsWRKY53SD S43D;S72D;S77D;S89D;S96D;S108D (Oryza sativa (rice)) (A7BEY7 entry or part of it S43D S72D S77D S89D S96D S108D): as the sequence (A7BEY7 entry or part of it S43A S72A S77A S89A S96A S108A) above, with A43D, A72D, A77D, A89D, A96D, A108D counted along it

“TTTGGGGATGCTTCGGCGAAGGGGGTGAGGTCAAAGCTCGTGCGGTTTGACCGGTCAGACGAGGCGGCTGAGGCTCGCGC (double strand) [W-box probe (W)]” was tested, and the binding [1] was “binds” and the binding [2] was “binds”.
